Results published in patent US20200116725.

Biological target: T1, P220 MMP9-cleavable peptide, Biotin-GGGGGGGGGGPLGVRGKGGC
T1 chain: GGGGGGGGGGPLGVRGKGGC

B1: MMP7 (Active, Human, Recombinant, E. coli, 444270, Merck Millipore) (protein)
chain: YSLFPNSPKWTSKVVTYRIVSYTRDLPHITVDRLVSKALNMWGKEIPLHFRKVVWGTADIMIGFARGAHGDSYPFDGPGNTLAHAFAPGTGLGGDAHFDEDERWTDGSSLGINFLYAATHELGHSLGMGHSSDPNAVMYPTYGNGDPQNFKLSQDDIKGIQKLYGKRSNSRKK
% Cleavage (free AuNC fraction: 7-12 mL), gel filtration chromatography with catalytic activity readout; AuNC-P220-NAv + MMP7/9/13 (12 h): MMP7: 12.1%
